# Source: patent US20250277199, “NOVEL CRISPR-CAS NUCLEASES FROM METAGENOMES” (Brain Biotech AG, published 2025)
# T1: BMC10 (uncultured bacterium (metagenome))
# T1 chain: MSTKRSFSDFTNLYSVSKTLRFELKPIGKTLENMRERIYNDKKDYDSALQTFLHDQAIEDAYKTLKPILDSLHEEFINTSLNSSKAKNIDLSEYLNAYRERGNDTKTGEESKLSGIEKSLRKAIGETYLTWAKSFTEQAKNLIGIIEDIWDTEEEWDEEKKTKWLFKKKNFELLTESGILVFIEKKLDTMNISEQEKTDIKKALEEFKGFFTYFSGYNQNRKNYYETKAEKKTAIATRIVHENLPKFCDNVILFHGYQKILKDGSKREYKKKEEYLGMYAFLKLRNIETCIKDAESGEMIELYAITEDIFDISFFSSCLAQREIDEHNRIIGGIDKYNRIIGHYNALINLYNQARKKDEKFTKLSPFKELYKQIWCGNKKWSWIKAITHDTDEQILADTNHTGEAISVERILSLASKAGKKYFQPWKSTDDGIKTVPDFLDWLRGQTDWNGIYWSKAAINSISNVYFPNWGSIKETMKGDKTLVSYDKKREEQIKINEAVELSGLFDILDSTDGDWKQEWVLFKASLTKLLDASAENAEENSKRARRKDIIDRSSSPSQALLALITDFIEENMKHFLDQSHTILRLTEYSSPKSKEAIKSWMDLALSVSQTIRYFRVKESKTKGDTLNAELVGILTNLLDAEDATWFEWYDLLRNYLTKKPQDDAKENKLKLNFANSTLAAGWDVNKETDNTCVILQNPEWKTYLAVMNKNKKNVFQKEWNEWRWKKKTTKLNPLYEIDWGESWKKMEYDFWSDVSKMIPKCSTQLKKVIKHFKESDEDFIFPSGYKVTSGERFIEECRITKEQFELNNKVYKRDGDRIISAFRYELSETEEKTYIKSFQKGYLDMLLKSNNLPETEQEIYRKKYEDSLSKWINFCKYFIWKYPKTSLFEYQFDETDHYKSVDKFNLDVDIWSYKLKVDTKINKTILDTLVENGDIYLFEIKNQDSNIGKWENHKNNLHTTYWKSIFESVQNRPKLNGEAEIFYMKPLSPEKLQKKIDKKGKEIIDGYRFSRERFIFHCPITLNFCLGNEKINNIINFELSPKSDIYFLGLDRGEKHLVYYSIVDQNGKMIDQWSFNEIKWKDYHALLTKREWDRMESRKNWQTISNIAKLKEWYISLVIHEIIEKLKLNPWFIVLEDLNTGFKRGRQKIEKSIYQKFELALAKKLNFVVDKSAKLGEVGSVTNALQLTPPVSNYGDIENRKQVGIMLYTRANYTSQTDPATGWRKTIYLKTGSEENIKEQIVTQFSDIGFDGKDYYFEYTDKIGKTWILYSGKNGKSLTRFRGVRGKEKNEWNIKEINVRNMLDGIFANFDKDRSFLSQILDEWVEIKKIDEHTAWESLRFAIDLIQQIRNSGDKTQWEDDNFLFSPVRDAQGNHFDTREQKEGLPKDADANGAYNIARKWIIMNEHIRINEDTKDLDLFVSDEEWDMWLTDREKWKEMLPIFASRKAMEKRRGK
# B1: malQ gRNA (BMC stem-loop + 24 nt spacer) ; malQ protospacer (ssRNA ; dsDNA)
# RNA: GAUUUCUACUAUUGUAGAUGUGGCGGUACGUUGAUGCAUCGCG
# DNA 1: GTGGCGGTACGTTGATGCATCGCG
# DNA 2: CGCGATGCATCAACGTACCGCCAC
# Biological target: T1, BMC10
# Experiment: cell_activity; PAM not stated; E. coli depletion, 30 C
# Outline: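 E. coli carrying arabinose-induced (0.2%) BMC nuclease, grown at 30° C., made electrocompetent and electroporated with 50-100 ng plasmid carrying gRNA against malQ. Transformants plated on selective M9-glucose agar with kanamycin/ampicillin (± nourseothricin), and growth scored after 48 h at 30° C.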
binder,measurement,value
B1,activity,> 99.9 % colony reduction
